# Results: patent publication US20260242478A1 (published 2026)
# B1: Phage-963 (peptide)
# peptide: YCEGHSAAYMQKCL
# notes: tested as crude clonal phage supernatant
# B2: Phage-959 (peptide)
# peptide: YCDGHSVEYKLKCM
# notes: as for B1
# B3: Phage-957 (peptide)
# peptide: YCDGHSVKYMAKCL
# notes: as for B1
# B4: Phage-964 (peptide)
# peptide: YCEGHMPEYLQKCL
# notes: as for B1
# B5: Phage-969 (peptide)
# peptide: YCDGHSEAYMWKCL
# notes: as for B1
# B6: Phage-965 (peptide)
# peptide: YCDGHELQYMAKCL
# notes: as for B1
# B7: Phage-962 (peptide)
# peptide: YCEGHLPLYMDKCL
# notes: as for B1
# B8: Phage-968 (peptide)
# peptide: YCDGHAQEFIWKCL
# notes: as for B1
# B9: Phage-966 (peptide)
# peptide: YCDGHRLEYLEKCL
# notes: as for B1
# B10: Phage-961 (peptide)
# peptide: YCAGHSPEYMQKCL
# notes: as for B1
# B11: Phage-960 (peptide)
# peptide: YCDGHAQEYMVKCL
# notes: as for B1
# B12: Phage-967 (peptide)
# peptide: YCAGHLDQYIEKCL
# notes: as for B1
# B13: Phage-958 (peptide)
# peptide: YCSGHLPEYMWKCL
# notes: as for B1
# Target: T1, Anti-CD28 Fab (SEQ ID NOs: 696, 697)
# T1 construct: In the phage ELISA the Fab was biotinylated and captured on neutravidin coated plates
# Assay: phage binding ELISA, clonal phage on biotinylated anti-CD28 Fab captured on neutravidin plates;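 note: crude clonal phage supernatants added to wells pretreated with CD28 antigen or blocking buffer only, bound phage detected by HRP-linked anti-M13 antibody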
# T1 sequence (VH, as listed by the source, chain 1 of 2): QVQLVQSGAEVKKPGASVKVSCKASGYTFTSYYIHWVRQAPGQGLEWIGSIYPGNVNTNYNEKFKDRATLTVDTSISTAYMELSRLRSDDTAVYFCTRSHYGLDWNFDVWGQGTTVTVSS
# T1 sequence (VL, as listed by the source, chain 2 of 2): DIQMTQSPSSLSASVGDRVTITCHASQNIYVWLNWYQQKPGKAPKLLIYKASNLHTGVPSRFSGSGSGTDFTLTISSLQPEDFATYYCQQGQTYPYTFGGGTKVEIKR
# Protocol: (§1) After panning, phage infected bacteria were plated out and colonies picked into 96 well blocks. Clonal phage was then amplified and separated from bacterial cells via centrifugation.
# (§2) Clonal phage were harvested as crude supematants and screened via standard ELISAs. […] Prior to the addition of clonal phage, wells were incubated with blocking buffer and CD28 antigen or blocking buffer alone. Without washing or aspirating, clonal phage supematants were then added to the wells and incubated for a short time. Wells were then washed followed by detection of bound phage using a horse radish conjugated anti-M13 antibody. Clonal phage of interest were then sent for sequence analysis.
row,Binder,"Anti-CD28 Fab (SEQ ID NOs: 696, 697) signal"
1,B1,1.6
2,B2,1.61
3,B3,1.61
4,B4,1.6
5,B5,1.59
6,B6,1.6
7,B7,1.6
8,B8,1.6
9,B9,1.6
10,B10,1.6
11,B11,1.61
12,B12,1.6
13,B13,1.61

# Target: T1, Anti-CD28 Fab (SEQ ID NOs: 696, 697)
# Assay: phage binding ELISA on captured anti-CD28 Fab, wells pre-incubated with CD28 antigen as competitor;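 note: crude clonal phage supernatants added to wells preloaded with CD28 antigen, bound phage read by HRP-conjugated anti-M13 antibody, control wells got blocking buffer alone without CD28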
# Protocol: as §1, §2
row,Binder,Anti-CD28 Fab signal in the presence of CD28
1,B1,0.09
2,B2,0.06
3,B3,0.06
4,B4,0.1
5,B5,0.07
6,B6,0.08
7,B7,0.08
8,B8,0.1
9,B9,0.06
10,B10,0.08
11,B11,0.06
12,B12,0.1
13,B13,0.1

# Target: T2, Anti-CD28 Fab (SEQ ID NOs: 696, 697)
# T2 construct: Biotinylated and captured on neutravidin coated plates in the phage ELISA
# Assay: phage ELISA, clonal phage on plate-captured biotinylated anti-CD28 Fab, anti-M13 HRP detection
# T2 sequence (VH, as listed by the source, chain 1 of 2): as the sequence (VH, as listed by the source, chain 1 of 2) above
# T2 sequence (VL, as listed by the source, chain 2 of 2): as the sequence (VL, as listed by the source, chain 2 of 2) above
# Protocol: as §1, §2
row,Binder,Anti-CD28 Fab signal (phage binding ELISA)
1,YCAGHSSEYIPKCL [Phage-974],1.58
2,YCDGHRVEYMAKCL [Phage-972],1.58
3,YCEGHLPQYMVKCL [Phage-977],1.58
4,YCDGHLPQYLQKCT [Phage-975],1.58
5,YCEGHSVEYIGKCL [Phage-971],1.59
6,YCEGHADEYMWKCL [Phage-970],1.59
7,YCDGHAKEYIQKCL [Phage-976],1.58
8,YCEGHSWEHMEKCL [Phage-973],1.58

# Target: T2, Anti-CD28 Fab (SEQ ID NOs: 696, 697)
# Assay: phage ELISA on plate-captured anti-CD28 Fab pre-incubated with CD28 antigen (competitor: CD28)
# Protocol: as §1, §2
row,Binder,Anti-CD28 Fab signal in the presence of CD28 (phage binding ELISA)
1,YCAGHSSEYIPKCL [Phage-974],0.09
2,YCDGHRVEYMAKCL [Phage-972],0.09
3,YCEGHLPQYMVKCL [Phage-977],0.07
4,YCDGHLPQYLQKCT [Phage-975],0.07
5,YCEGHSVEYIGKCL [Phage-971],0.07
6,YCEGHADEYMWKCL [Phage-970],0.06
7,YCDGHAKEYIQKCL [Phage-976],0.06
8,YCEGHSWEHMEKCL [Phage-973],0.06

# Target: T3, Anti-CD28 Fab (SEQ ID NOs: 696, 697)
# T3 construct: In the phage ELISA the Fab was biotinylated and captured on neutravidin coated plates
# Assay: phage ELISA on captured anti-CD28 Fab; competitor: CD28 antigen pre-incubated on the Fab
# T3 sequence (VH, as listed by the source, chain 1 of 2): as the sequence (VH, as listed by the source, chain 1 of 2) above
# T3 sequence (VL, as listed by the source, chain 2 of 2): as the sequence (VL, as listed by the source, chain 2 of 2) above
# Protocol: as §1, §2
row,Binder,Anti-CD28 Fab signal in the presence of CD28 (phage binding ELISA)
1,YCEGHSWVYMAKCL [Phage-943],0.07
2,YCAGHVAEYMAKCL [Phage-933],0.06
3,YCAGHSLEYMQKCL [Phage-937],0.07
4,YCAGHAPEYMSKCL [Phage-939],0.05
5,YCEGHMWEYMAKCL [Phage-935],0.13
6,YCEGHSSEYMWKCL [Phage-940],0.09
7,YCEGHDLIYMWKCL [Phage-938],0.06
8,YCDGHDVEYMSKCL [Phage-936],0.05
9,YCEGHLEQYMQKCL [Phage-942],0.06
10,YCDGHATEYMQKCL [Phage-934],0.1
11,YCDGHLDVYRAKCL [Phage-941],0.09

# Target: T4, Anti-CD28 Fab (SEQ ID NOs: 696, 697)
# T4 construct: Biotinylated and captured on neutravidin coated plates in the phage ELISA
# Assay: phage ELISA; captured anti-CD28 Fab pre-incubated with CD28 antigen as competitor, anti-M13 HRP;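 note: crude clonal phage supernatants added without washing after CD28 pre-incubation, bound phage detected with HRP anti-M13 antibody, reference wells got blocking buffer lacking CD28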
# T4 sequence (VH, as listed by the source, chain 1 of 2): as the sequence (VH, as listed by the source, chain 1 of 2) above
# T4 sequence (VL, as listed by the source, chain 2 of 2): as the sequence (VL, as listed by the source, chain 2 of 2) above
# Protocol: as §1, §2
row,Binder,"Phage binding ELISA, Anti-CD28 Fab signal in the presence of CD28"
1,YCDGHAQEYMDKCL [Phage-950],0.08
2,YCDGHLSEYMSKCL [Phage-948],0.06
3,YCEGHVTEYMQKCL [Phage-949],0.08
4,YCAGHSPQYMEKCL [Phage-956],0.06
5,YCDGHLLEYKAKCL [Phage-953],0.07
6,YCDGHSLEYIGKCL [Phage-944],0.06
7,YCDGHSPEYMLKCL [Phage-955],0.07
8,YCAGHLPEYMGKCL [Phage-946],0.07
9,YCEGHAPQYIMKCL [Phage-951],0.06
10,YCDGHSEAFMQKCL [Phage-945],0.07
11,YCAGHLAIYMSKCL [Phage-947],0.08
12,YCDGHELKYMLKCL [Phage-952],0.08
13,YCEGHLEEYMAKCL [Phage-954],0.07

# Target: T4, Anti-CD28 Fab (SEQ ID NOs: 696, 697)
# Assay: phage ELISA; biotinylated anti-CD28 Fab on neutravidin plate, clonal phage supernatant, anti-M13 HRP
# Protocol: as §1, §2
row,Binder,"Phage binding ELISA, Anti-CD28 Fab signal"
1,YCDGHAQEYMDKCL [Phage-950],1.62
2,YCDGHLSEYMSKCL [Phage-948],1.62
3,YCEGHVTEYMQKCL [Phage-949],1.62
4,YCAGHSPQYMEKCL [Phage-956],1.61
5,YCDGHLLEYKAKCL [Phage-953],1.62
6,YCDGHSLEYIGKCL [Phage-944],1.63
7,YCDGHSPEYMLKCL [Phage-955],1.61
8,YCAGHLPEYMGKCL [Phage-946],1.63
9,YCEGHAPQYIMKCL [Phage-951],1.62
10,YCDGHSEAFMQKCL [Phage-945],1.63
11,YCAGHLAIYMSKCL [Phage-947],1.63
12,YCDGHELKYMLKCL [Phage-952],1.62
13,YCEGHLEEYMAKCL [Phage-954],1.62

# Target: T3, Anti-CD28 Fab (SEQ ID NOs: 696, 697)
# Assay: phage ELISA; clonal phage supernatant on biotinylated anti-CD28 Fab captured on neutravidin, anti-M13 HRP detection
# Protocol: as §1, §2
row,Binder,Anti-CD28 Fab signal (phage binding ELISA)
1,YCEGHSWVYMAKCL [Phage-943],1.63
2,YCAGHVAEYMAKCL [Phage-933],1.64
3,YCAGHSLEYMQKCL [Phage-937],1.63
4,YCAGHAPEYMSKCL [Phage-939],1.63
5,YCEGHMWEYMAKCL [Phage-935],1.64
6,YCEGHSSEYMWKCL [Phage-940],1.63
7,YCEGHDLIYMWKCL [Phage-938],1.63
8,YCDGHDVEYMSKCL [Phage-936],1.64
9,YCEGHLEQYMQKCL [Phage-942],1.63
10,YCDGHATEYMQKCL [Phage-934],1.64
11,YCDGHLDVYRAKCL [Phage-941],1.63
